Data reported in US20220403048A1, “BINDING MOLECULES TO ARGINASE II [ARG2]” (Cancer Research Technology Limited, priority 2019, published 2022).

Experiments:
[1] = test system: cynomolgus ARG2; assay: Bio-Layer Interferometry (OctetRED) binding kinetics, cynomolgus ARG2; conditions: Fab as analyte; cyno ARG2 ligand; affinity-matured antibodies
Excerpt: (§1) The OctetRED (Pall ForteBio) instrument was used to assess the kinetic parameters of the interactions between C0020187 and recombinantly produced human ARG2, cynomolgus ARG2 and human ARG1. The Octet biosensor uses an optical analytical technique that analyses the interference pattern of white light reflected from two surfaces: a layer of immobilised protein on the sensor tip, and an internal reference layer. Any changes in binding at the biosensor tip result in a shift in interference pattern, which can be measured in real time. Molecules associating with or dissociating from ligands at the biosensor tip shift the interference pattern and generate a response on the Octet system which is recorded by the acquisition software.
(§2) Typically, a defined concentration of the analyte species is brought into contact with the coupled ligand and any binding is detected as an increased in signal (association phase). This is followed by a period of buffer rinse, during which dissociation of the analyte species from the surface immobilised ligand can be observed as a decrease in signal (dissociation phase). Repetition of this with a range of analyte concentrations provides data for the analysis of binding kinetics.
(§3) An Octet Kinetics Buffer (PBS containing 0.01% BSA and 0.002% Tween20) is typically used as the diluent buffer for the analyte samples and as the flow buffer during the dissociation phase. The experimental data is recorded over time as shift in interference pattern (nm) over time, which is directly proportional to the optical thickness at the biosensor tip, which in turn is an approximate measure of the mass of analyte bound. The proprietary Octet Data Analysis software package can then be used to process data and fit binding models to the data sets. Returned association (ka, M^−1 s^−1) and dissociation (kd, s^−1) rate constants allow calculation of dissociation (KD, M) affinity constants.
(§4) The affinity of binding between the Fab of C0020187 and human ARG2, cynomolgus ARG2 and human ARG1 was estimated using assays in which the biotinylated ARG antigen was captured on a streptavidin sensor tip. A fresh sensor tip was used for each measurement and no regeneration was used. A series of dilutions of the C0020187 Fab (3.25-240 nM) were individually placed in contact with the ligand surface for a sufficient amount of time to observe sensorgrams that could be fitted to an appropriate binding model with confidence (typically 5 minutes), followed by an appropriate length of dissociation time (typically 10 minutes). Blank reference (0 nM Fab) data were subtracted from each dataset to reduce the impact of any buffer artefacts or non-specific binding effects. An appropriate binding model was then fitted simultaneously to the data from each analyte titration using the Octet Evaluation software.
(§5) Example results for C0020187 are shown in Table 9, showing the association rate constants (ka), dissociation rate constants (kd) and dissociation constants (KD). These parameters were derived from a 1:1 binding fit to the data.
(§6) The affinities of the affinity-matured antibodies to human ARG2 were measured on the OctetRED system as described in section 1.15 using the streptavidin capture method. Typically, an analyte titration range of 1.8 to 120 nM was used.
The affinities of some of these antibodies to cynomolgus ARG2 were determined using the same assay, and the derived kinetic parameters are shown in Table 21.

[2] = molecular target: T1, human ARG2 (Homo sapiens, UniProt P78540, E275H/R327K); assay: Bio-Layer Interferometry (OctetRED) binding kinetics, human ARG2; conditions: Fab as analyte; streptavidin capture; analyte 1.8 to 120 nM; affinity-matured antibodies
T1 construct: His10 (after a GGG linker) (C); made in house; host or cells: E. coli BL21 (DE3)
T1 sequence (P78540 23-354 E275H/R327K): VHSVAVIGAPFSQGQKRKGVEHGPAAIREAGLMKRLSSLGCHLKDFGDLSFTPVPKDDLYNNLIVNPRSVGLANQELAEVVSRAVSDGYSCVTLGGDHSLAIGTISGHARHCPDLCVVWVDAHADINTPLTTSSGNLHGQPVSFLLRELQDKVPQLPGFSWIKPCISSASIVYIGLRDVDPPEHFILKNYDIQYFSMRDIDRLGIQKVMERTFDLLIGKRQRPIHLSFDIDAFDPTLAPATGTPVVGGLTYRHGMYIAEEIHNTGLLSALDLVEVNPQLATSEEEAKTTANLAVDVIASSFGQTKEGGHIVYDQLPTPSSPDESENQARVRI
Excerpt: as §1, §2, §3, §4, §5, §6
The affinities of the second-generation antibodies to human ARG2 were measured on the OctetRED system. A screening assay which stably captures His-tagged ARG2 as the ligand on an anti-His surface was utilised to screen the second-generation candidates as Fabs at an analyte range of 1.8 to 120 nM, with an association time of 5 minutes and a dissociation time of 10 minutes. Sensors were regenerated using 10 mM glycine pH 1.5 after each cycle. Based on this assay, six candidates with estimated affinities in the sub-nanomolar range were identified, and they were further profiled using an extended assay which is more suitable for antibodies of high affinities. […]

[3] = molecular target: T2, human ARG1 (Homo sapiens, UniProt P05089); assay: Bio-Layer Interferometry (OctetRED) binding, human ARG1; conditions: Fab analyte up to 120 nM, screening assay on anti-His surface
T2 construct: Avi tag (N); His10 (after a GGG linker) (C); made in house; host or cells: E. coli BL21 (DE3)
T2 sequence (P05089 with tags, fused parts or gaps): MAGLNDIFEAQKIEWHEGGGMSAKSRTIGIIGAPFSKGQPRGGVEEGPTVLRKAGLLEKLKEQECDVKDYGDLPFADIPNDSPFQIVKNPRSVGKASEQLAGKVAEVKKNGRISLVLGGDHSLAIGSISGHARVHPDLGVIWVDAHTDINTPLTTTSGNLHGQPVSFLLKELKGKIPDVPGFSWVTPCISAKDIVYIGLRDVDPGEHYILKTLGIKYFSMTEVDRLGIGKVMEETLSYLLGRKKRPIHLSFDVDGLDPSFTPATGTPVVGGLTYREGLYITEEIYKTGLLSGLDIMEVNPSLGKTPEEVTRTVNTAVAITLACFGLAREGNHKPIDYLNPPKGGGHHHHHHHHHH
Method: as §4
(§7) The binding of affinity-matured antibodies to human ARG1 was also tested on the OctetRED system using a screening assay which stably captures […] as the ligand on an anti-His surface. The Fabs were typically tested in an analyte range of 1.8 to 120 nM, with an association time of 5 minutes and a dissociation time of 10 minutes. Sensors were regenerated using 10 mM glycine pH 1.5 after each cycle.
as §7, with “Binding” for “The binding”, “the second-generation” for “affinity-matured”, “ARG” for “ARG1”, “were” for “were typically”, “as” for “in an”, “up” for “range of 1.8”

Chain of cynomolgus ARG2 (as listed by the source): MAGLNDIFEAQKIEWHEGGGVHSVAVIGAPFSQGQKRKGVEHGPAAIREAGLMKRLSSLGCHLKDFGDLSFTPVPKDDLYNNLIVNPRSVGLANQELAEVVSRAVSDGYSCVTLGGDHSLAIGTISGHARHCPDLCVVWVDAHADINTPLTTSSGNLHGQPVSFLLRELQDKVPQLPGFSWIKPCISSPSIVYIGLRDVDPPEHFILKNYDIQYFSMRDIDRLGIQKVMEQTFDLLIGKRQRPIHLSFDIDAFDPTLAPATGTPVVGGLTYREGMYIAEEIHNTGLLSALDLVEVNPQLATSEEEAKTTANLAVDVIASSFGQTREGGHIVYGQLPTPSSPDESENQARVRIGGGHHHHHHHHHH

ka [1]: 437000 M⁻¹ s⁻¹
kd [1]: 0.000771 s⁻¹
ka [2]: 266000 M⁻¹ s⁻¹
kd [2]: 0.000674 s⁻¹
Results, binding to human ARG1 (BLI) [3]: No binding observed
B1: C0021128: anti-ARG2 antibody, VH SEQ ID NO: 162, VL SEQ ID NO: 167 (antibody, listed as Homo sapiens, V domains shown)
VH: EVQLLESGGGLVQPGGSLRLSCAASGFTFQYEVAAWVRQAPGKGLEWVSAISGPIPKGYYADSVKGRFTISRDNSKNTLYLQMNSLRAEDTAVYYCARLRADLGLYMDLWGRGTLVTVSS
VL: QSVLTQPPSVSAAPGQKVTISCSGSSSNIGNHYVSWYQQLPGTAPKLLIYDNAIESSGIPDRFSGSKSGTSATLGITGLQTGDGADYYCGTWDSNLSALVFGGGTKLTVL
modifications: C0021128
